Laboratory results reported in US20170258870.

Test system: Helix 5 TAT peptide

Substance: recombinant GC mutant N370S
- GC enzyme activity (4-MU substrate): the helix 5 TAT-peptide led to a four-fold increase in the activity of the N370S mutant
